Experimental data from the nanobody polyreactivity screen of Harvey et al. (2022).

test: yeast display, Sf9 membrane polyspecificity reagent, FACS + sequencing; frameworks hold sequencing errors
Procedure, shortened: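 Nanobodies from a synthetic yeast display library (Saccharomyces cerevisiae BJ5465), induced 36–48 hours with galactose, were stained 1 hour at 4 °C with 10% biotinylated, detergent-solubilized Sf9 membrane reagent, enriched on streptavidin microbeads, then FACS-sorted. Anti-HA (expression) and streptavidin (reagent binding) fluorescence set low and high (top ~1%) gates. Polyreactivity labels come from the gate of origin. Genes were colony-PCR amplified, MiSeq 2 × 250 sequenced and filtered by CDR length.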

Row | Sequence | polyreactivity (PSR sort gate)
1 | QVQLVESGGGLVQAGGSLSLSCAASGSIFGFNAMGWYRQAPGKERELVAAINNGGSTNYADSVKGRFTISRDNAKNTVYLQMNSLNPEDTSVYYCAAVGGWRWSNQDYRYPYYYWGQGTQVTVSS | high polyreactivity
2 | QVQLVESGGGLVQAGGSLSLSCAASGSIFGGYTMGRKRQAPGKERELVAAISSVGSTYYADSVKGRFTISRDNAKNTVYLQMNSLKTEDTAVYYCATSTYAYRRNSNYYSLPRFGYWGQGTQVSVSS | high polyreactivity
3 | QVQLVESGGGLVQAGGSLSLSCAASGSIFPHYAMGWYRQAPGKERELVAAISRGGSTNYADSVKGRFTISRDNAKNTVYLQMISLKPEDTAVYYCNARVYTKDYKRYDYWGQGTQVTVSS | high polyreactivity
4 | QVQLVESGGGLVQAGGSLSLSCAASGSIFYGYAMGWYRQAPGKERELVAAITSGGRTYYADSVKGRFTISRDNAKNTVYLQMNSLKPEDTAVYYCNAVYRKTSYGYWGQGTQVTVSS | high polyreactivity
5 | QVQLVESGGGLVQAGGSLSLSCAASGSILDRNTMGWYRQAPGKERELVAAITGSGSRTYYADSVKGRFTISRDNAKNTVYLQMNSLKPEDTAVYYCAAYTHSWTGDNYWGQGTQVTVSS | high polyreactivity
6 | QVQLVESGGGLVQAGGSLSLSCAASGSTFGYYARGWYRQAPGKERELVATITIGGYTHYADSVKGRFTISRDNAKNTVYLQMNSLKPEDTAFYYCAKRYYTNRHSRAFGYWGQGTQVTVSS | high polyreactivity
7 | QVQLVESGGGLVQAGGSLSLSCAASGSTFPEYVMGWYRQAPGKERELVAAITRRGGRTYYADSVKGRFTISRDNAKNTVYLQMNSLKPEDTEVYYCAAKSAVVVCMDSWGQGTQVTVSS | high polyreactivity
8 | QVQLVESGGGLVQAGGSLSLSCAASGSTFSIYTMGWYRQAPGKERELVAVITKSGGSTYYADSVKGRFTISRDNAKNTVYLQMNSLKPEDTAVYYCAARRRGARHDYWGQGTQVTVSS | high polyreactivity
9 | QVQLVESGGGLVQAGGSLSLSCAASGSTFYHYAMGWYRQAPGKERELVAAISSSGGRTYYADSVKGRFTISRDNAKYTVYLQMNSLKPEDTAVYYCAARAKTSGSIEDYWGQGTQVTVSS | high polyreactivity
10 | QVQLVESGGGLVQAGGSLSLSCAASGSTIVVNAMGWYRQAPGKERELVASISWTTCSTYYADSVKGRFTISRDNAKNTVYLQMNSLKPEDTAVYYCAADILPRYSQFDYWGQGTQVTVSS | low polyreactivity
11 | QVQLVESGGGLVQAGGSLSLSCAASGSTSVLNAMGWYRHAPGKERELVAALTSGVDSTYYADSVKGRFTISRDNAKNTVYLQMNSVKREDTAVYYCATVVDALDNSYKRVYLFDYWGQGTQVTVSS | low polyreactivity
12 | QVQLVESGGGLVQAGGSLSLSCAASGTFSPYAMGWYRQAPGKERELVADITSNTGRTYAASVKGRFTISRDNAKNTVYLQMNSLKPEDTAVYYCNTYGSGTHSTGYDYWGQGTQVTVSS | low polyreactivity
13 | QVQLVESGGGLVQAGGSLSLSCAASRFTIGLYAMGWYRQAPGKEREMVAVISSSGGSTYYADSVKGRFTISRDNAKNTVYLQMNSLKPEDTAVYYCAAEWHDYKFDVTYDYWGQGTQVTVSS | low polyreactivity
14 | QVQLVESGGGLVQAGGSLSLSCAATGSIITSNAMGWYRQAPGKERELVAAISWSGSRTFYADSVKGRFTISRDNEKNTVYLQMNSLKPEDTAVYYCAAGNRKWKMGYWGQGTQVTVSS | high polyreactivity
15 | QVQLVESGGGLVQAGGSLSLSCAATGSTFWWYAMGWYRQAPGKEREFVAAIRWSSGSTYYADSVKGRFTISRDNAKNTVYLQMNSLKPEDTAVYYCATDDTSNVYVDLDYWGQGTQVTVSS | high polyreactivity
16 | QVQLVESGGGLVQAGGSLSLSCAAYGITISIYSMGSYRQAPGKERELVAAINSGGTTYYADSVKGRFTISRDNAKNTVYLQMNSLKPEDTAVYYCADEYFAYPYEFYGGQGTQVTVSS | high polyreactivity
17 | QVQLVESGGGLVQAGGSLSLSCADSGSNFGDYAMGWYRQAPGKERELFAAISFSDGSTYYADSVKGRFTISRDNANNTVYLQMNSLKPEDTAVYYCAKDAYWGYRWYTYDYWGQGTQVTVSS | low polyreactivity
18 | QVQLVESGGGLVQAGGSLSLSCPASGRIFRWNAMGWYRQAPGKEREFVAAISWSGGSTYYADSVKGRFTISRDNAKNTVYLQMNSLKPEDTAVYYCNKVGYYGVGTSQEFDYWGQGTQVTVSS | high polyreactivity
19 | QVQLVESGGGLVQAGGSLSLSWAASGSTFETNAMGWYRQAPGKERELVAVITRGGSTYSADSVKGRFTISRDNAKNTVFLQMNRLKPEDTAVYYCNTVKYVPINYIYAMDYWGQGTQVTVSS | low polyreactivity
20 | QVQLVESGGGLVQAGGSLSLTCAASVLTLTGYPMGWYRPAPGKERELVAAISSRGGSTYYADSVKGRFTISRDNAKNTVYLQMNSLKREDTAFYYCDARASSGARGLDYWGQGTQVTVSS | high polyreactivity
21 | QVQLVESGGGLVQAGGSRRLRCAASGSTFDVYAMGWYRQAPGKESELVAVINTSGTRTYYADSVKGRFTISRDNAKNTVYLQMNSLKPEDTAVYSCNAGGHLEMNYWGQGTQVTVSS | low polyreactivity
22 | QVQLVESGGGLVQAGGSRRLSCAASGFFFDVNAMGWYRQAPGTEREWVATISKRGGTTYYADSVKGRFTISRDNAKNTVYLQMNSLKQEDTAVYYCAARHQSLRSYRYDYWGQGTQVTVSS | low polyreactivity

Row | Sequence | polyreactivity (PSR sort gate)
23 | QVQLVESGGGLVQAGGSRRLSCAASGFIFTKYTMGWYRQAPGKERELVAAIRSDGVRTYYADSVKGRFTISRDNAKNTVYLQMNSLKPEDTAVYYCAARSLRYGRGMYYWGQGTQVTVSS | high polyreactivity
24 | QVQLVESGGGLVQAGGSRRLSCAASGIIFAQYAMGWYRQAPGKERELVDSISGGGSTTNYADSVKGRFTISRDNAKNTVYLQMNSLKPEDTAVYYCAARTRRRGGIYDYWGQGTQVTVSS | high polyreactivity
25 | QVQLVESGGGLVQAGGSRRLSCAASGIIFTRNSMGWYRQAPGKERELVAAISRSGGRTYYADSVKGRFTISRDNAKNTVYLQMNSLKPEDTAVYYCYPRDKNLQAYDYWGQGNQVTVSS | high polyreactivity
26 | QVQLVESGGGLVQAGGSRRLSCAASGIIFYPNAMGWYRQAPGKERELVAAITSDGSTYYADSVKGRFTISRDNAKNTVYLQMNSLKPEDTAVYYCAAWDDYGYDYWGQGTQVTVSS | low polyreactivity
27 | QVQLVESGGGLVQAGGSRRLSCAASGRSFTRYAMGWYRQAPGKERVLVAAITSSGRTYYADSVKGRFTISRDNAKNTVYLQMNRLKPEDTAVYYCAKYRANALNYANRGAGDYWGQGTQVTVSS | high polyreactivity
28 | QVQLVESGGGLVQAGGSRRLSCAASGRTFRNYAMGWYRQAPGKERELVAAINFSGDGTYYADSVKGRFTISRDNAKNTVYLQMNSLKPEDTAVYYCAADVEYYRDVPQQVYVSDDYWGQGTQVTVSS | low polyreactivity
29 | QVQLVESGGGLVQAGGSRRLSCAASGSIFDYYVMGWYRQAPVKERELVAAISWSGASTYSADSVKGRFTISRDNAKNTVYLQMNSLKPEDTAVYYCAADYGVNTLIDYDYWGQGTQVTVSS | low polyreactivity
30 | QVQLVESGGGLVQAGGSRRLSCAASGSIFVKYAMGWYRQAPGKERELVAAISQSGVRTYYADSVKGRFTISRDNAKNTVYLQMNSLKPEDTAVYYSAAYSGYYYWGQGTQVTVSS | high polyreactivity
31 | QVQLVESGGGLVQAGGSRRLSCAASGSISGYNAMGWYRQAPGKERELVAVITTDGSTNYADSVKGRFTISRDNAKNTVYLQMNSLKPEDTAVYYCADYVVWLYGYEYWGQGTQVTVSS | low polyreactivity
32 | QVQLVESGGGLVQAGGSRRLSCAASGSISNRYAMGWYRPAPGKEREFVARIRRRGGSTNYADSVKGRFTISRDNAKKTVYLQMNSLKPEDTAVYYCNAYPYQLDYDYWGQGTQVTVSS | high polyreactivity
33 | QVQLVESGGGLVQAGGSRRLSCAASGSISVGFTMGWYRQAPGKEWEFVAVITGTGGRTRYADSVKGRFTISRDNAKNTVYLQMNSLKPEDTAVYYCAAKIRWRGALYDYWGQGSQVTVSS | high polyreactivity
34 | QVQLVESGGGLVQAGGSRRLSCAASGSTFARYPMGWYRQAPGKERELVATITRGGSTNYADSVKGRFTISRDNAKNTVYLQMNSLKPEDTAVYYCNARCGRSPYGYGDYYWGQGTQVTVSS | high polyreactivity
35 | QVQLVESGGGLVQAGGSRSLSCAASGRNFYYYTMGWYRQAPGKERELVAAISWGGVNTDYADSVKGRFTISRDNAKNTVYLQMNSLKPEDTAVYYCAAGRWSVGTYDYWGQGTQVTVSS | low polyreactivity
36 | QVQLVESGGGLVQAGGSSRLSCAASGRTFDDYAMGWYRQAPATERELVAAISSRGGSTYYADSVKGRFTISRDNAKHTVYLQMNSLKPEDTAVYYSNTLQSSHGSSQYDSWGQGTQVTVSS | low polyreactivity
37 | QVQLVESGGGLVQAGGSVRLSCAASGFISPSYAMGWYRQAPGKERELVAAITTSGGSTYYADSVKGRFTISRDNAKNTVYLQMNSLIPEDTAVYYCAAVGPDNSLYEPMDYWGQGTQVTVSS | low polyreactivity
38 | QVQLVESGGGLVQAGGSVRLSCAASGFSFRLYVLGWYRQAPGTERELVAAISSLGGSTYYADSVKGRFTISRDNAKYTVDLQMNSLKPEDTAVYYCAADRPRGRETVDYWGHGTQVTVSS | high polyreactivity
39 | QVQLVESGGGLVQAGGSVRLSCAASGNIFLRNAMGWYRQSPGKERELVAAIRRTGGSTYYADSVKGRFTISRDNAKTTVYLQMNSLKPEDTAVYYCAKRSYTGYEYWGQGTQVTVSS | low polyreactivity
40 | QVQLVESGGGLVQAGGSVRLSCAASGRIFQPYAMGWYRQAPGKEREWVAAITRRAGSTYYADSVKGRFTISRDNALNTVYLQLNSLKPEDTAVSYCAARGLYWAYEMEYWGQGTQVTVSS | low polyreactivity
41 | QVQLVESGGGLVQAGGSVRLSCAASGRILKVYPMGWYRQAPGKEWEFVAAISVNGGRTYYADSVKGRFTISRDNAKNTVYLQRQRLNPEDTAVYYCAKRLYKPGNVFYSVDQSDYWGQGTQVTVSS | low polyreactivity
42 | QVQLVESGGGLVQAGGTHRLSCSASGFIFCKYAMGWYRQAPGKERELVAVITRSGSRTYYADSVKGRFTISRDNAKNTVYLQMNSLKPEDTAVYYCATENVYAYDYWGQGTQVTVSS | high polyreactivity
43 | QVQLVESGGGLVQAGGTISLSCAASGRTYRNNAMGWYRQAPGKEMELVAAISRTGGRTYYADSVKGRFTISRDNAKNPVYLQMNSLKPEDSAVYYCNAAYLVREYDYWGQGTQVTVSS | high polyreactivity
